This is an account of results in US20240262904A1 (SHANGHAI MABGEEK BIOTECH, published 2024).

The target in experiment [1] is T1, human TSLP antigen tagged with Flag (hTSLP-Flag) (human, UniProt Q969D9 29-159, limits assumed). Nature of the experiment: cell-based or functional assay.
For experiment [2], the target named is T1, human TSLP antigen tagged with Flag …. Briefly: SPR, Biacore T200, antibody captured on Protein A chip, hTSLP-Flag as analyte.
The target of the next experiment is T2, TSLP-flag-Biotin (human, UniProt Q969D9 29-159, limits assumed, biotin label, site not stated).
T2 construct: the labelling is not described; also called biotinylated TSLP-flag
Briefly: competition ELISA by the method of Example 5: blocks TSLP-flag-Biotin binding to coated TSLPR-ECD-hFc.

B1: humanized anti-human TSLP antibody 163H (antibody, human IgG1, kappa, V domains shown)
VH: EVQLVESGGGLVQPGGSLRLSCAASGFTFSSFGMHWVRQAPGKGLEWVSYISSGSSNIYYADTVKGRFTISRDNAKNSLYLQMNSLRAEDTAVYYCARDGGSRRHYYVMDYWGQGTLVTVSS
VL: EIVLTQSPATLSLSPGERATLSCKASQDVSPAVAWYQQKPGQSPRLLIYSASYRYTGVPARFSGSGSGTDFTLTISSLEPEDFAVYYCQQHYSSPFTFGQGTKLEIKR
notes: Humanized, human IgG1 constant region
Turning to B1, the “IC50 of inhibition of TSLP-dependent STAT5 activation (luciferase, IL-7R/TSLPR-BaF3-Luc (STAT5) cells, TSLP-flag stimulus)” value in experiment [1] came to 378 ng/mL. For the same molecule, in experiment [2], the Kd was determined as 0.0513 nM, the off-rate (koff) was found to be 0.000302 s⁻¹ and the kon was determined as 5.89e+06 M⁻¹ s⁻¹. For the same molecule, in the experiment with TSLP-flag-Biotin, the IC50 turned out to be 0.159 µg/mL.

B2: humanized anti-human TSLP antibody 111H (antibody, human IgG1, kappa, V domains shown)
VH: EVQLVESGGGLVQPGGSLRLSCSVSGFSLTYSGVNWVRQAPGKGLEWLGAIWGDGSTNYHSALISRLTISKDNSKSTVYLQMNSLRAEDTAVYYCAKPDGYSGIFAYWGQGTLVTVSS
VL: EIVLTQSPGTLSLSPGERATLSCSASSSLSSNYLHWYQQKPGQAPRLLIYRTSNLASGVPDRFSGSGSGTDFTLTISRLEPEDFAVYYCQQGSGILVTFGQGTKLEIKR
notes: Humanized, human IgG1 constant region; also called humanized antibody No. 111
B2: in experiment [1], the “IC50 of inhibition of TSLP-dependent STAT5 activation (luciferase, IL-7R/TSLPR-BaF3-Luc (STAT5) cells, TSLP-flag stimulus)” value was 184 ng/mL. In addition, in the experiment with TSLP-flag-Biotin, the IC50 was 0.167 µg/mL.

B3: humanized anti-human TSLP antibody 101H (antibody, human IgG1, kappa, V domains shown)
VH: QVQLVQSGAEVKKPGASVKVSCKTSGYTFTKYWIQWVRQAPGQGLEWIGEIFPGTGTTYYNEIFKARVTLTVDTSTSTAYMELSSLRSEDTAVYYCARRGDYDVYYALDYWGQGTLVTVSS
VL: EIVLTQSPATLSLSPGERATLSCSANSGVNYIHWYQQKPGQAPRFWIWTTSNLASGVPARFSGSGSGTDFTLTISSLEPEDFAVYYCQQRSSYPFTFGQGTKLEIKR
notes: Humanized, human IgG1 constant region; also called humanized antibody No. 101
For the molecule B3, the IC50 in the experiment with TSLP-flag-Biotin was 0.185 µg/mL.
